Among the data in publication PMC3482499 are binding values, retold here.

The target of the data set is T1, Cra (Escherichia coli O157:H7 (EHEC) 86-24) (UniProt P0ACP3).
T1 sequence: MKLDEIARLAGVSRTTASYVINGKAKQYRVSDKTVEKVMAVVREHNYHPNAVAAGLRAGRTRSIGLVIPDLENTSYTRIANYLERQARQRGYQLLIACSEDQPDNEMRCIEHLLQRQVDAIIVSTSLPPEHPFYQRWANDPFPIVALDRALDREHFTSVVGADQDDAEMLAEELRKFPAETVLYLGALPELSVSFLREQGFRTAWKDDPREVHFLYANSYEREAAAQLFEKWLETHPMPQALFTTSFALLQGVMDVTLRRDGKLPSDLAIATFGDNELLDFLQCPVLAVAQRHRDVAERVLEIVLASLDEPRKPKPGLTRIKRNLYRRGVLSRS
In words: competition.

As to “TCGGATCCCATGTGCTGCGACTGCGTTCGCTTACCCCAATCACTTACTTATGTAAGCTCCTGGGGATTCACTCGCTTGCCGCCTTCCTGTAACTCGAATTAAGTAGAGTATAGTGAAACGGTTCAGCTTGGTTTTTATTCTGTTTTATTTGTTTATGCAATGAGATCTATCTTATAAAGAGAAACGCTTAACTAAATGGAAATGCGAATTCGA (double strand) [ler probe aa (-450 to -255)]”, the binding result is on record as “binds”.
